Experimental findings from the Human Domainome abundance scans (Beltran et al. 2025) are described below.

± gives the uncertainty stated by the source.

A short description of the data set: abundance fitness (aPCA) (normalised: wild type 0, dead -1); higher = more abundant; growth selection in yeast, the domain comes from the species named. As to conditions: Homo sapiens.
For “Scaffold attachment factor B2 V55W, Q14151”, the abundance fitness is -0.811 ± 0.1.

The substance “Scaffold attachment factor B2 V55Y, Q14151” returned an abundance fitness of -0.605 ± 0.18.

On to “Scaffold attachment factor B2 V64A, Q14151”, for which the abundance fitness was -0.227 ± 0.096.

“Scaffold attachment factor B2 V64C, Q14151”: the abundance fitness was -0.312 ± 0.14.

Consider “Scaffold attachment factor B2 V64D, Q14151”, for which the abundance fitness is -0.232 ± 0.18.

The substance “Scaffold attachment factor B2 V64E, Q14151” gave an abundance fitness of -0.109 ± 0.098.

Regarding “Scaffold attachment factor B2 V64F, Q14151”, the abundance fitness is -0.326 ± 0.12.

Consider “Scaffold attachment factor B2 V64G, Q14151”, for which the abundance fitness is -0.294 ± 0.091.

In turn, “Scaffold attachment factor B2 V64H, Q14151” registered an abundance fitness of -0.173 ± 0.1.

For the substance “Scaffold attachment factor B2 V64I, Q14151”, the abundance fitness was -0.271 ± 0.14.

Take “Scaffold attachment factor B2 V64K, Q14151”: the abundance fitness is -0.035 ± 0.14.

“Scaffold attachment factor B2 V64L, Q14151” had an abundance fitness of 0.006 ± 0.098.

“Scaffold attachment factor B2 V64M, Q14151” came in with an abundance fitness of -0.013 ± 0.13.

Take “Scaffold attachment factor B2 V64N, Q14151”: the abundance fitness was -0.418 ± 0.21.

Consider “Scaffold attachment factor B2 V64Q, Q14151”, for which the abundance fitness was -0.141 ± 0.16.

As to “Scaffold attachment factor B2 V64R, Q14151”, the abundance fitness was -0.14 ± 0.09.

On to “Scaffold attachment factor B2 V64S, Q14151”, for which the abundance fitness was -0.242 ± 0.084.

Substance “Scaffold attachment factor B2 V64T, Q14151” showed an abundance fitness of -0.123 ± 0.11.

“Scaffold attachment factor B2 V64W, Q14151” yielded an abundance fitness of -0.025 ± 0.086.

In turn, “Scaffold attachment factor B2 V64Y, Q14151” gave an abundance fitness of -0.274 ± 0.31.

The substance “Tyrosine-protein kinase Lck D77E, P06239” gave an abundance fitness of -0.02 ± 0.13.

Substance “Tyrosine-protein kinase Lck E83K, P06239” showed an abundance fitness of -0.049 ± 0.12.

“Tyrosine-protein kinase Lck E92N, P06239”: the abundance fitness is -0.047 ± 0.14.

Take “Tyrosine-protein kinase Lck E96D, P06239”: the abundance fitness turned out to be 0.069 ± 0.16.

Turning to “Tyrosine-protein kinase Lck E108T, P06239”, the abundance fitness is 0.034 ± 0.12.

For “Tyrosine-protein kinase Lck F110Y, P06239”, the abundance fitness is 0.001 ± 0.19.

Turning to “Tyrosine-protein kinase Lck F113S, P06239”, the abundance fitness turned out to be 0.094 ± 0.071.

Turning to “Tyrosine-protein kinase Lck F115Y, P06239”, the abundance fitness stood at 0.148 ± 0.12.

For the substance “Tyrosine-protein kinase Lck G78D, P06239”, the abundance fitness was -0.088 ± 0.099.

Take “Tyrosine-protein kinase Lck G81S, P06239”: the abundance fitness was -0.096 ± 0.078.

Turning to “Tyrosine-protein kinase Lck H70Y, P06239”, the abundance fitness is -0.029 ± 0.12.

The substance “Tyrosine-protein kinase Lck H76T, P06239” came in with an abundance fitness of -0.17 ± 0.1.

In turn, “Tyrosine-protein kinase Lck I67A, P06239” had an abundance fitness of -0.465 ± 0.1.

With “Tyrosine-protein kinase Lck I67C, P06239”, the abundance fitness is -0.193 ± 0.12.

The substance “Tyrosine-protein kinase Lck I67D, P06239” gave an abundance fitness of -0.506 ± 0.21.

“Tyrosine-protein kinase Lck I67E, P06239”: the abundance fitness was -0.146 ± 0.11.

“Tyrosine-protein kinase Lck I67F, P06239” returned an abundance fitness of -0.102 ± 0.16.

Regarding “Tyrosine-protein kinase Lck I67G, P06239”, the abundance fitness is -0.552 ± 0.079.

In turn, “Tyrosine-protein kinase Lck I67H, P06239” showed an abundance fitness of -0.353 ± 0.13.

Substance “Tyrosine-protein kinase Lck I67K, P06239” showed an abundance fitness of -0.442 ± 0.14.

“Tyrosine-protein kinase Lck I67N, P06239” came in with an abundance fitness of -0.206 ± 0.15.

“Tyrosine-protein kinase Lck I67P, P06239” returned an abundance fitness of -0.607 ± 0.15.

“Tyrosine-protein kinase Lck I67Q, P06239” displayed an abundance fitness of -0.394 ± 0.14.

Take “Tyrosine-protein kinase Lck I67R, P06239”: the abundance fitness was -0.263 ± 0.097.

In turn, “Tyrosine-protein kinase Lck I67S, P06239” yielded an abundance fitness of -0.378 ± 0.08.

As to “Tyrosine-protein kinase Lck I67T, P06239”, the abundance fitness came out at 0.151 ± 0.16.

Consider “Tyrosine-protein kinase Lck I67W, P06239”, for which the abundance fitness was -0.078 ± 0.11.

With “Tyrosine-protein kinase Lck I67Y, P06239”, the abundance fitness came to 0.097 ± 0.25.

Regarding “Tyrosine-protein kinase Lck K99L, P06239”, the abundance fitness was -0.125 ± 0.074.

Regarding “Tyrosine-protein kinase Lck P74A, P06239”, the abundance fitness was -0.414 ± 0.1.

Substance “Tyrosine-protein kinase Lck Q87R, P06239” had an abundance fitness of -0.01 ± 0.077.

In turn, “Tyrosine-protein kinase Lck Q101H, P06239” had an abundance fitness of -0.328 ± 0.16.

As for “Tyrosine-protein kinase Lck R89Q, P06239”, the abundance fitness was determined as 0.125 ± 0.29.

Substance “Tyrosine-protein kinase Lck S71D, P06239” had an abundance fitness of -0.095 ± 0.14.

“Tyrosine-protein kinase Lck S75R, P06239” registered an abundance fitness of -0.064 ± 0.081.
